T1: TRAIL-Fc fusion protein (human), P50591
T1 chain: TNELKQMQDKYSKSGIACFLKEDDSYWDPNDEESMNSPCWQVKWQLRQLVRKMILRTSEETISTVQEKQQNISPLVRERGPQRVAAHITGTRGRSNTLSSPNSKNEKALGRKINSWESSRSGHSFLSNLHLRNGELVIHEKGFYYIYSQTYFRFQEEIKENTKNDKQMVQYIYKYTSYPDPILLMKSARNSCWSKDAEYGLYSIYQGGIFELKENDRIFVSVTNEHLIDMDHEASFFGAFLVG


Assays:
[1] = target: TRAIL-Trimer fusion protein (human) (UniProt P50591); assay: SDS-PAGE under non-reducing and reducing conditions; 2 µg of purified protein on 10% or 15% SDS-PAGE, Coomassie Blue; TRAIL-Trimer also by western blot
[2] = target: T1, TRAIL-Fc fusion protein (human), P50591; assay: as above; conditions: remark: other sources report otherwise

Row | stoichiometry N [1] | stoichiometry N [2] | Molecule
1 | 3 | – | TRAIL-Trimer fusion protein (from UniProt P50591 39-281) (ligand)
2 | – | 2 | TRAIL-Fc fusion protein, P50591 39-281 (Fc fusion) TNELKQMQDKYSKSGIACFLKEDDSYWDPNDEESMNSPCWQVKWQLRQLVRKMILRTSEETISTVQEKQQNISPLVRERGPQRVAAHITGTRGRSNTLSSPNSKNEKALGRKINSWESSRSGHSFLSNLHLRNGELVIHEKGFYYIYSQTYFRFQEEIKENTKNDKQMVQYIYKYTSYPDPILLMKSARNSCWSKDAEYGLYSIYQGGIFELKENDRIFVSVTNEHLIDMDHEASFFGAFLVG
